Drawing on the supplement of paper PMC10724198, this text covers protein stability index for 116 sequences.

± gives the standard deviation of the averaged measurements.
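Further: PSI is a weighted mean of sequencing reads over stability bins, variants kept only with over 10 reads, mCherry proximal and sfGFP distal, peptide attached via GGGS linker.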

This data set concerns Saccharomyces cerevisiae. The experiment in a line: protein stability index of tFT-peptide fusion (C-terminal peptide) (PSI (0-1 scale)); higher = more stable (slower turnover). The note with it: genetic background: wild type; temperature: 30 C. The procedure: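 Multiplexed protein stability (MPS) profiling in S. cerevisiae. Random 12-aa peptides (tFT-X12 library) are fused to the C-terminus of a sfGFP-mCherry tandem fluorescent timer, after mCherry and a GGGS linker. Cells are FACS-sorted into 8 mCherry/sfGFP bins and deep-sequenced. The protein stability index (PSI) is the read-weighted bin average, scaled from 0 (unstable) to 1 (stable). Only peptides with >10 reads are reported; cells were grown at 30 °C in SC-His with glucose.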
AVFWLRFSRISV had a protein stability index of 0.618 ± 0.0094.
Next, AVFYGRWRGVWE: 0.859 ± 0.12; AVGARRRLEVGD: 0.722 ± 0.016; AVGCLGKSRATL: 0.662 ± 0.0088.
Next, AVGLGARHRVAW: 0.688 ± 0.016; AVGLGPFGGSRG: 0.695 ± 0.0095.
For AVGRSVVCINRA, the protein stability index amounted to 0.686 ± 0.041.
AVGVCGGGWWWA: the protein stability index was 0.792 ± 0.098.
Take AVLERGLCCGEY: the protein stability index worked out at 0.738 ± 0.031.
Next, AVLGGAGGGWAG: 0.687 ± 0.12.
Next, AVLKDFDTKHLY: 0.613 ± 0.024; AVMGQRQAESPV: 0.693 ± 0.067.
The sequence AVPGLPLWWQPS registered a protein stability index of 0.746 ± 0.028.
In turn, AVQSEFGVGFSM came in with a protein stability index of 0.736 ± 0.04.
For the sequence AVRELIRASGPG, the protein stability index came to 0.642 ± 0.043.
Sequence AVRVLLISSSGT registered a protein stability index of 0.641 ± 0.031.
On to AVSFGSTLANWA, for which the protein stability index stood at 0.718 ± 0.062.
Regarding AVSTYGAQAWNH, the protein stability index worked out at 0.704 ± 0.018.
For the sequence AVVFCSIPCLRV, the protein stability index is 0.575 ± 0.052.
Next, AWDSVNDSDPPR: 0.717 ± 0.035.
AWEPGGVVAVLL: the protein stability index came out at 0.621 ± 0.14.
For AWGLKRSCRIKL, the protein stability index is 0.678 ± 0.051.
Take AWNRFVNPRVWS: the protein stability index worked out at 0.677 ± 0.03.
AWRGFVALSFSR yielded a protein stability index of 0.695 ± 0.049.
The sequence AWRGGSRKDVEG registered a protein stability index of 0.7129 ± 0.001.
AWRGLAPRFVLT: the protein stability index amounted to 0.544 ± 0.01.
Regarding AWSALWGAVSPY, the protein stability index was 0.7073 ± 0.0027.
Consider AWSVRVGGSATA, for which the protein stability index was found to be 0.695 ± 0.033.
Turning to AWVCSPSACGLV, the protein stability index turned out to be 0.834 ± 0.089.
Turning to AYAPPSALPYPF, the protein stability index was found to be 0.729 ± 0.0075.
Regarding AYDIIPGKFKKI, the protein stability index worked out at 0.652 ± 0.05.
The sequence AYGGEWGDRGWL displayed a protein stability index of 0.688 ± 0.076.
Take AYSPLFPPLLSL: the protein stability index was determined as 0.649 ± 0.045.
In turn, AYVFLPINKENR yielded a protein stability index of 0.6405 ± 0.0053.
Next, AYVHGSINPMQP: 0.691 ± 0.011; AYVQPASRSPPP: 0.735 ± 0.062; CAGLIDLVGDVS: 0.654 ± 0.018.
The sequence CARSFGLFGTAT yielded a protein stability index of 0.694 ± 0.075.
CASACPPPPPAT showed a protein stability index of 0.726 ± 0.019.
Next, CASGPLQPLPRA: 0.753 ± 0.084.
Next, CAVGPQSSSCPR: 0.56 ± 0.03.
The sequence CAVVSRYQPLSL showed a protein stability index of 0.7092 ± 0.006.
Next, CAWRSVRLLIAH: 0.506 ± 0.068.
For the sequence CCFHRLRYSRAV, the protein stability index stood at 0.647 ± 0.02.
For CCGGRTWFVCGV, the protein stability index turned out to be 0.699 ± 0.041.
In the case of CCRANWDFPIPS, the protein stability index was found to be 0.707 ± 0.027.
CCRTMLGSLVRS yielded a protein stability index of 0.659 ± 0.012.
In turn, CCVSLQSNLLFS had a protein stability index of 0.68 ± 0.026.
CDLISPAHLVLG: the protein stability index was 0.678 ± 0.01.
CDRPERRRTHVY had a protein stability index of 0.655 ± 0.041.
Next, CDSRLSGVFKFG: 0.6816 ± 0.0026.
Sequence CDVIGLVRVKRG showed a protein stability index of 0.771 ± 0.047.
The sequence CDWRSMEWRGCW yielded a protein stability index of 0.693 ± 0.0072.
Regarding CFCGGFGVFVIF, the protein stability index came out at 0.593 ± 0.014.
CFFFFIFSLFGL: the protein stability index was found to be 0.515 ± 0.02.
For CFGRSPWLTINV, the protein stability index stood at 0.6171 ± 0.0046.
Turning to CFIPLCPLSFCI, the protein stability index amounted to 0.609 ± 0.016.
On to CFLERLAFPGLY, for which the protein stability index was found to be 0.633 ± 0.011.
In the case of CFLSFLLFSSSP, the protein stability index stood at 0.558 ± 0.025.
On to CFPPSLVPRPTY, for which the protein stability index turned out to be 0.673 ± 0.054.
With CFSRKGIRIKRP, the protein stability index is 0.734 ± 0.0098.
The sequence CFVERRCFLLYR registered a protein stability index of 0.562 ± 0.029.
CFVSSSRFLSSF returned a protein stability index of 0.692 ± 0.065.
CGCVWVSYFFDK: the protein stability index is 0.655 ± 0.069.
With CGFLFPCSPSSK, the protein stability index turned out to be 0.689 ± 0.068.
On to CGGCPGCDIHMG, for which the protein stability index was 0.655 ± 0.082.
CGGFGGLYVVVF: the protein stability index stood at 0.545 ± 0.014.
Consider CGGGGGLWLLEV, for which the protein stability index amounted to 0.559 ± 0.015.
The sequence CGGSLGAPVLVG came in with a protein stability index of 0.588 ± 0.042.
As to CGGSWMRGLRDL, the protein stability index turned out to be 0.72 ± 0.043.
Next, CGILTWASSSLG: 0.688 ± 0.034.
With CGLCLGGEWLVG, the protein stability index is 0.701 ± 0.026.
Next, CGLRGAGCLARD: 0.637 ± 0.019; CGPGGFGGERVG: 0.73 ± 0.058; CGRFGRGVDLGN: 0.687 ± 0.02.
CGRFVGEGGGKV: the protein stability index is 0.777 ± 0.1.
Sequence CGRLSNAAEPTC showed a protein stability index of 0.792 ± 0.19.
Regarding CGRPRGGEPGGA, the protein stability index came to 0.715 ± 0.078.
In turn, CGVWHGFFGLWL came in with a protein stability index of 0.657 ± 0.12.
Next, CGVYGRVVEWGG: 0.706 ± 0.042; CGWGVWGAKSGR: 0.6289 ± 0.0049; CIFSMLLPPFSL: 0.687 ± 0.0091.
CIFWGSGWDTLV returned a protein stability index of 0.728 ± 0.063.
Take CIIIIGRHSIWG: the protein stability index was determined as 0.672 ± 0.057.
CKCKFLGLSATM: the protein stability index worked out at 0.613 ± 0.013.
CKRKGREEEEKE had a protein stability index of 0.7361 ± 0.0064.
Next, CLCITGIPVQGF: 0.653 ± 0.064; CLCLCFLDYKAC: 0.5731 ± 0.0051.
Sequence CLCRAAGARRCG returned a protein stability index of 0.694 ± 0.03.
Next, CLESKTGYEVMG: 0.7065 ± 0.0052; CLFIAGGSDLSH: 0.7 ± 0.039; CLFSVENNNILG: 0.704 ± 0.0015.
Sequence CLGLRFDFYGFV had a protein stability index of 0.702 ± 0.065.
With CLGLVSNCGLYV, the protein stability index was found to be 0.674 ± 0.041.
Next, CLHTSVYFHLQR: 0.669 ± 0.04; CLLLVLCKFGLL: 0.556 ± 0.023; CLRRTSLEDRRR: 0.704 ± 0.037.
On to CLTSSIFSRSFA, for which the protein stability index is 0.632 ± 0.04.
Next, CLVSVDYFPPKL: 0.75 ± 0.16.
Next, CLWRGDEGRVPW: 0.7139 ± 0.0026.
CMVRGCFNHCGW displayed a protein stability index of 0.669 ± 0.024.
Next, CNSRVSAVGLII: 0.6303 ± 0.0018; CPALSPSPTLAS: 0.68 ± 0.15.
Next, CPGLCVFFSPDY: 0.661 ± 0.044.
For the sequence CPGTSRADFSAV, the protein stability index is 0.681 ± 0.044.
Sequence CPLPLPPLHESF displayed a protein stability index of 0.674 ± 0.031.
In turn, CPPPPPPPASPH yielded a protein stability index of 0.698 ± 0.074.
The sequence CPPPTPPAPPLP gave a protein stability index of 0.74 ± 0.033.
With CPPRPCTASIVR, the protein stability index worked out at 0.632 ± 0.036.
CPRRVAVAGETS displayed a protein stability index of 0.697 ± 0.044.
As to CPVFYRYCHPPH, the protein stability index came to 0.707 ± 0.047.
CRCVRVGSVVLD: the protein stability index amounted to 0.632 ± 0.016.
Turning to CREWNKAGWGNV, the protein stability index was 0.702 ± 0.014.
The sequence CRGRGFVVGGRR gave a protein stability index of 0.687 ± 0.035.
Next, CRISHPPLGGGS: 0.652 ± 0.02; CRRCQRNRVLDG: 0.673 ± 0.068.
